Like-named read-outs stand apart in the source and are kept apart here.
T1: SlmA (UniProt P0C093 1-198)
T1 sequence: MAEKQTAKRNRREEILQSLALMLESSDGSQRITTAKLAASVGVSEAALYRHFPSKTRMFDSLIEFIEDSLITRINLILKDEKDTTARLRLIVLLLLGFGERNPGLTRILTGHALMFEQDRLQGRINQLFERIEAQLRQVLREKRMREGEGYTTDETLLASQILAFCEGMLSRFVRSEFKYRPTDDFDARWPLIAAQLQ

B1: SlmA (free, without DNA) (natural protein, E. coli, UniProt P0C093 1-198, looked up)
chain: T1 sequence
notes: Nucleoid occlusion factor SlmA of E. coli; Dimer by SEC-MALLS in the absence of DNA; also called free SlmA; source: purified and cleaved from SUMO protein essentially as described in [31]
B2: SlmA·SBS complex (four SlmA monomers, as two dimers, bound to one SBScons DNA) (complex, E. coli, UniProt P0C093 1-198, looked up)
chain: T1 sequence
notes: Nucleoid occlusion factor SlmA of E. coli; same chain as m2; 4:1 SlmA:SBS by sedimentation velocity and SEC-MALLS; also called SlmA SBScons; SlmA:SBScons
B3: SBS12 (dsDNA)
DNA 1: CGCGAAGTGAACGCTAACTCACTG
DNA 2: CAGTGAGTTAGCGTTCACTTCGCG
B4: SBScons (dsDNA)
DNA 1: AAGTAAGTGAGCGCTCACTTACGT
DNA 2: ACGTAAGTGAGCGCTCACTTACTT
B5: SBS17 (dsDNA)
DNA 1: TCAACGTTAGTGACCATTTACTTACTTTTG
DNA 2: CAAAAGTAAGTAAATGGTCACTAACGTTGA
B6: E. coli FtsZ (natural protein, UniProt P0A9A6 1-383, looked up)
chain: MFEPMELTNDAVIKVIGVGGGGGNAVEHMVRERIEGVEFFAVNTDAQALRKTAVGQTIQIGSGITKGLGAGANPEVGRNAADEDRDALRAALEGADMVFIAAGMGGGTGTGAAPVVAEVAKDLGILTVAVVTKPFNFEGKKRMAFAEQGITELSKHVDSLITIPNDKLLKVLGRGISLLDAFGAANDVLKGAVQGIAELITRPGLMNVDFADVRTVMSEMGYAMMGSGVASGEDRAEEAAEMAISSPLLEDIDLSGARGVLVNITAGFDLRLDEFETVGNTIRAFASDNATVVIGTSLDPDMNDELRVTVVATGIGMDKRPEITLVTNKQVQQPVMDRYQQHGMAPLTQEQKPVAKVVNDNAPQTAKEPDYLDIPAFLRKQAD
notes: Cell division protein FtsZ of E. coli; The nucleotide state (GDP: oligomers); In AUC and FCS a tracer share of FtsZ labelled on amine groups with Alexa Fluor 488 (FtsZ-Alexa 488) was mixed with unlabelled FtsZ; also called FtsZ-GDP; FtsZ-GTP; source: isolated as described elsewhere [40]

What was measured:
[1] = target: FtsZ (Escherichia coli) (UniProt P0A9A6); details: cited from earlier work
[2] = target: FtsZ (Escherichia coli) (UniProt P0A9A6); details: cited from earlier work; remark: listed apart in the source
[3] = target: the molecule itself; experiment: SEC-MALS; Superdex 200 10/300 GL, 0.5 mL/min, 20°C, working buffer (50 mM Tris-HCl, 300 mM KCl, 2 mM MgCl2, pH 7.5); SlmA 10 μM (also 6 μM), no DNA
[4] = target: B6; experiment: fluorescence polarisation; anisotropy titration of FtsZ with 1 mM GTP + regeneration system into SlmA 2 μM with fluorescein-SBScons 0.2 μM (also 1 μM and 10 nM); 20°C, working buffer (50 mM Tris-HCl, 300 mM KCl, 2 mM MgCl2, pH 7.5); 1:1 model, apparent Kd in FtsZ monomer concentration; details: both partners purified
[5] = target: T1, SlmA; experiment: fluorescence anisotropy; 300 mM KCl, 2 mM MgCl2; apparent Kd, 4:1 model; dG 17.6 ± 0.2 kcal/mol; 50 mM Tris-HCl, 300 mM KCl, 2 mM MgCl2, pH 7.5, 20 C; 10 nM labeled SBS in SlmA anisotropy titrations; details: protein: recombinant; tags: SUMO tag cleaved off; chain copies: 4; label: 5' fluorescein on sense strand (anisotropy); blunt
[6] = target: T1, SlmA; experiment: fluorescence anisotropy; 300 mM KCl, 2 mM MgCl2; apparent Kd, 4:1 model; dG 20.3 ± 0.2 kcal/mol; 50 mM Tris-HCl, 300 mM KCl, 2 mM MgCl2, pH 7.5, 20 C; 10 nM labeled SBS in SlmA anisotropy titrations; details: protein: recombinant; tags: SUMO tag cleaved off; chain copies: 4; label: 5' fluorescein on sense strand (anisotropy); blunt
[7] = target: T1, SlmA; experiment: fluorescence anisotropy; 300 mM KCl, 2 mM MgCl2; apparent Kd, 4:1 model; dG 18.0 ± 0.2 kcal/mol; 50 mM Tris-HCl, 300 mM KCl, 2 mM MgCl2, pH 7.5, 20 C; 10 nM labeled SBS in SlmA anisotropy titrations; details: protein: recombinant; tags: SUMO tag cleaved off; chain copies: 4; label: fluorescein on T at position 27 from the 5' end of the antisense strand; blunt
[8] = target: the molecule itself; experiment: AUC; sedimentation velocity, 48,000 rpm, 20°C, working buffer (50 mM Tris-HCl, 300 mM KCl, 2 mM MgCl2, pH 7.5); FtsZ-GDP 30 μM total with 6 μM FtsZ-Alexa 488 as tracer, without or with SlmA 15 μM and SBScons 4 μM

Molecule: SlmA (from UniProt P0C093)
Kd [1]: 0.2 µM

Molecule: MinC (from UniProt P18196)
Kd [2]: 8 µM

Molecule: B1
stoichiometry N [3]: 2

Molecule: B2
Kd [4]: 12 µM

Molecule: B3
Kd [5]: 0.27 ± 0.05 µM

Molecule: B4
Kd [6]: 0.025 ± 0.004 µM

Molecule: B5
Kd [7]: 0.19 ± 0.03 µM

Molecule: B6
binding result [8]: binds

Reference: article PMC4423959, “The Nucleoid Occlusion SlmA Protein Accelerates the Disassembly of the FtsZ Protein Polymers without Affecting Their GTPase Activity” (PLoS ONE, 2015)
